In one test the target is human CD47 (human, UniProt Q08722 19-323). Put plainly: SPR. (In general: In SPR one partner is held on a chip, and binding of the other changes the refractive index at the surface.)
A further test deals with BSA (bovine, UniProt P02769 25-607). Put plainly: ELISA.

As usually defined, the koff is a measure of how fast the partners let go of each other. As a reminder, the Kd is a measure of binding affinity in units of concentration.

BSA, sequence (P02769 25-607): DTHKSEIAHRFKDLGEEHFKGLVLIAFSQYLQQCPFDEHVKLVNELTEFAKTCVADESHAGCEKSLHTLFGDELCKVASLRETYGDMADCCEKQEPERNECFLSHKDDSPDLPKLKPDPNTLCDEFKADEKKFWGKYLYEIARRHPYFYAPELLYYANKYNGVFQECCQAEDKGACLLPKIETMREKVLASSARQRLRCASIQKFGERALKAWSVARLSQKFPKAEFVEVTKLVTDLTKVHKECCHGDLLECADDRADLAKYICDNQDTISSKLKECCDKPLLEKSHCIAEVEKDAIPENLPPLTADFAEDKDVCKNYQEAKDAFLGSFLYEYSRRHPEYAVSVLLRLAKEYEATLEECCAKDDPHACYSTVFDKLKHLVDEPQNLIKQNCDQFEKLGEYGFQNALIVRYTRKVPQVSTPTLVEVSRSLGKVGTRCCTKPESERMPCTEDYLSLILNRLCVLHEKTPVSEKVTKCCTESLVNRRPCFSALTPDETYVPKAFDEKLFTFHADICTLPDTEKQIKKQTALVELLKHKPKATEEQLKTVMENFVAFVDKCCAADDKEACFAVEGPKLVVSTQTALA
human CD47, sequence (Q08722 19-323): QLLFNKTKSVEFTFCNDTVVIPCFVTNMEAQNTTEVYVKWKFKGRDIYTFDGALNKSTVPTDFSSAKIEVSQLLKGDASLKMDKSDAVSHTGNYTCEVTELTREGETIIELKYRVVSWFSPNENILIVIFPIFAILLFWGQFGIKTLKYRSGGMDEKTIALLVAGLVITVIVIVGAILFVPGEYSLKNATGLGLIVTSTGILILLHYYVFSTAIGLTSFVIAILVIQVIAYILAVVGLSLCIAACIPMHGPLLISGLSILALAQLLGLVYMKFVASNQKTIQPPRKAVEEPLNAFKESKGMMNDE

B1: TKKTLRT–SIRPαFc conjugate (Fc fusion)
chain 1: EEELQVIQPDKSVLVAAGETATLRCTATSLIPVGPIQWFRGAGPGRELIYNQKEGHFPRVTTVSDLTKRNNMDFSIRIGNITPADAGTYYCVKFRKGSPDDVEFKSG
chain 2: TKKTLRTC
modifications: free amino groups joined through Sulfo-SMCC to the cysteine of the peptide TKKTLRTC; one or two peptides on one SIRPαFc (MALDI-TOF-MS); sites not told | sulfhydryl of the C-terminal cysteine joined to the maleimide group of Sulfo-SMCC
Take B1: the koff in the test with human CD47 was determined as 0.00958 s⁻¹. The molecule also displayed a Kd in the test with BSA of 56.8 nM.

B2: human SIRPαFc fusion protein (Fc fusion)
chain: B1 chain 1
In turn, B2 registered a koff with human CD47 of 0.00727 s⁻¹. The molecule further had a Kd in the test with BSA of 4.25 nM.

The values are drawn from PMC9002095 (2022).
